Laboratory results taken from patent US20070275049A1.

Columns and labels:
[1] = molecular target: EGFR-derived peptide(s) on MHC class I (H-2Kb/H-2Db) of EGFR-positive LL/2c tumor cells (mouse)
[2] = molecular target: EGFR-derived peptide(s) on MHC class I of EGFR-positive MA782/5S tumor cells (mouse)

spleen T cells of mice immunized by chEGFR molecular vaccine (cells without a defined receptor)
specific cytocidal activity, standard Cr51 test, at the ratio of 40:1 [1]: 40.3%
specific cytocidal activity, standard Cr51 test, at the ratio of 40:1 [2]: 42.8%
